Experimental findings from paper PMC3656769 are described below.

Holding throughout (conditions): glycan lost; control: wild type
The nature of data set [1]: nonreducing SDS-PAGE Western, Hep3B stable cells.
The nature of data set [2]: cell surface biotinylation, Western, HEK 293.
Data set [3] is described as follows: confocal immunofluorescence, nonpermeabilized HEK 293.
Data set [4] can be described thus: surface biotinylation, FLAG IP, nonreducing Avidin-HRP blot, Hep3B.
Data set [5] in a line: Western after 12 h holo-Tf, Hep3B transient and stable.

B1: Transferrin receptor 2 (hTfR2): 3-Mut (protein)
parent chain: MERLWGLFQRAQQLSPRSSQTVYQRVEGPRKGHLEEEEEDGEEGAETLAHFCPMELRGPEPLGSRPRQPNLIPWAAAGRRAAPYLVLTALLIFTGAFLLGYVAFRGSCQACGDSVLVVSEDVNYEPDLDFHQGRLYWSDLQAMFLQFLGEGRLEDTIRQTSLRERVAGSAGMAALTQDIRAALSRQKLDHVWTDTHYVGLQFPDPAHPNTLHWVDEAGKVGEQLPLEDPDVYCPYSAIGNVTGELVYAHYGRPEDLQDLRARGVDPVGRLLLVRVGVISFAQKVTNAQDFGAQGVLIYPEPADFSQDPPKPSLSSQQAVYGHVHLGTGDPYTPGFPSFNQTQFPPVASSGLPSIPAQPISADIASRLLRKLKGPVAPQEWQGSLLGSPYHLGPGPRLRLVVNNHRTSTPINNIFGCIEGRSEPDHYVVIGAQRDAWGPGAAKSAVGTAILLELVRTFSSMVSNGFRPRRSLLFISWDGGDFGSVGSTEWLEGYLSVLHLKAVVYVSLDNAVLGDDKFHAKTSPLLTSLIESVLKQVDSPNHSGQTLYEQVVFTNPSWDAEVIRPLPMDSSAYSFTAFVGVPAVEFSFMEDDQAYPFLHTKEDTYENLHKVLQGRLPAVAQAVAQLAGQLLIRLSHDRLLPLDFGRYGDVVLRHIGNLNEFSGDLKARGLTLQWVYSARGDYIRAAEKLRQEIYSSEERDERLTRMYNVRIMRVEFYFLSQYVSPADSPFRHIFMGRGDHTLGALLDHLRLLRSNSSGTPGATSSTGFQESRFRRQLALLTWTLQGAANALSGDVWNIDNNF
For B1, in data set [1], the oligomerisation result is given as “decreases”. The localisation_or_trafficking result in data set [2], in data set [3] and in data set [4] was “no change” in each case.

B2: Transferrin receptor 2 (hTfR2): N339A (protein)
parent chain: MERLWGLFQRAQQLSPRSSQTVYQRVEGPRKGHLEEEEEDGEEGAETLAHFCPMELRGPEPLGSRPRQPNLIPWAAAGRRAAPYLVLTALLIFTGAFLLGYVAFRGSCQACGDSVLVVSEDVNYEPDLDFHQGRLYWSDLQAMFLQFLGEGRLEDTIRQTSLRERVAGSAGMAALTQDIRAALSRQKLDHVWTDTHYVGLQFPDPAHPNTLHWVDEAGKVGEQLPLEDPDVYCPYSAIGNVTGELVYAHYGRPEDLQDLRARGVDPVGRLLLVRVGVISFAQKVTNAQDFGAQGVLIYPEPADFSQDPPKPSLSSQQAVYGHVHLGTGDPYTPGFPSFNQTQFPPVASSGLPSIPAQPISADIASRLLRKLKGPVAPQEWQGSLLGSPYHLGPGPRLRLVVNNHRTSTPINNIFGCIEGRSEPDHYVVIGAQRDAWGPGAAKSAVGTAILLELVRTFSSMVSNGFRPRRSLLFISWDGGDFGSVGSTEWLEGYLSVLHLKAVVYVSLDNAVLGDDKFHAKTSPLLTSLIESVLKQVDSPNHSGQTLYEQVVFTNPSWDAEVIRPLPMDSSAYSFTAFVGVPAVEFSFMEDDQAYPFLHTKEDTYENLHKVLQGRLPAVAQAVAQLAGQLLIRLSHDRLLPLDFGRYGDVVLRHIGNLNEFSGDLKARGLTLQWVYSARGDYIRAAEKLRQEIYSSEERDERLTRMYNVRIMRVEFYFLSQYVSPADSPFRHIFMGRGDHTLGALLDHLRLLRSNSSGTPGATSSTGFQESRFRRQLALLTWTLQGAANALSGDVWNIDNNF
B2: the “other: holo-Tf-induced stabilisation (protein level), fold_change” value (from here on “other … fold_change”) in data set [5] is listed as “no change”.

B3: Transferrin receptor 2 (hTfR2): N754A (protein)
parent chain: MERLWGLFQRAQQLSPRSSQTVYQRVEGPRKGHLEEEEEDGEEGAETLAHFCPMELRGPEPLGSRPRQPNLIPWAAAGRRAAPYLVLTALLIFTGAFLLGYVAFRGSCQACGDSVLVVSEDVNYEPDLDFHQGRLYWSDLQAMFLQFLGEGRLEDTIRQTSLRERVAGSAGMAALTQDIRAALSRQKLDHVWTDTHYVGLQFPDPAHPNTLHWVDEAGKVGEQLPLEDPDVYCPYSAIGNVTGELVYAHYGRPEDLQDLRARGVDPVGRLLLVRVGVISFAQKVTNAQDFGAQGVLIYPEPADFSQDPPKPSLSSQQAVYGHVHLGTGDPYTPGFPSFNQTQFPPVASSGLPSIPAQPISADIASRLLRKLKGPVAPQEWQGSLLGSPYHLGPGPRLRLVVNNHRTSTPINNIFGCIEGRSEPDHYVVIGAQRDAWGPGAAKSAVGTAILLELVRTFSSMVSNGFRPRRSLLFISWDGGDFGSVGSTEWLEGYLSVLHLKAVVYVSLDNAVLGDDKFHAKTSPLLTSLIESVLKQVDSPNHSGQTLYEQVVFTNPSWDAEVIRPLPMDSSAYSFTAFVGVPAVEFSFMEDDQAYPFLHTKEDTYENLHKVLQGRLPAVAQAVAQLAGQLLIRLSHDRLLPLDFGRYGDVVLRHIGNLNEFSGDLKARGLTLQWVYSARGDYIRAAEKLRQEIYSSEERDERLTRMYNVRIMRVEFYFLSQYVSPADSPFRHIFMGRGDHTLGALLDHLRLLRSNSSGTPGATSSTGFQESRFRRQLALLTWTLQGAANALSGDVWNIDNNF
In the case of B3, the “other … fold_change” value in data set [5] is “no change”.

B4: Transferrin receptor 2 (hTfR2): N240A (protein)
parent chain: MERLWGLFQRAQQLSPRSSQTVYQRVEGPRKGHLEEEEEDGEEGAETLAHFCPMELRGPEPLGSRPRQPNLIPWAAAGRRAAPYLVLTALLIFTGAFLLGYVAFRGSCQACGDSVLVVSEDVNYEPDLDFHQGRLYWSDLQAMFLQFLGEGRLEDTIRQTSLRERVAGSAGMAALTQDIRAALSRQKLDHVWTDTHYVGLQFPDPAHPNTLHWVDEAGKVGEQLPLEDPDVYCPYSAIGNVTGELVYAHYGRPEDLQDLRARGVDPVGRLLLVRVGVISFAQKVTNAQDFGAQGVLIYPEPADFSQDPPKPSLSSQQAVYGHVHLGTGDPYTPGFPSFNQTQFPPVASSGLPSIPAQPISADIASRLLRKLKGPVAPQEWQGSLLGSPYHLGPGPRLRLVVNNHRTSTPINNIFGCIEGRSEPDHYVVIGAQRDAWGPGAAKSAVGTAILLELVRTFSSMVSNGFRPRRSLLFISWDGGDFGSVGSTEWLEGYLSVLHLKAVVYVSLDNAVLGDDKFHAKTSPLLTSLIESVLKQVDSPNHSGQTLYEQVVFTNPSWDAEVIRPLPMDSSAYSFTAFVGVPAVEFSFMEDDQAYPFLHTKEDTYENLHKVLQGRLPAVAQAVAQLAGQLLIRLSHDRLLPLDFGRYGDVVLRHIGNLNEFSGDLKARGLTLQWVYSARGDYIRAAEKLRQEIYSSEERDERLTRMYNVRIMRVEFYFLSQYVSPADSPFRHIFMGRGDHTLGALLDHLRLLRSNSSGTPGATSSTGFQESRFRRQLALLTWTLQGAANALSGDVWNIDNNF
Turning to B4, the “other … fold_change” value in data set [5] is recorded as “no change”.
